From paper PMC5383425, “Differential CLE peptide perception by plant receptors implicated from structural and functional analyses of TDIF-TDR interactions” (PLoS ONE, 2017)
“Also recorded” adds a separate entry of the source. Square brackets hold non-standard residues; d marks the D form. Ends that are not written are not given here. Peptide text beside a SMILES is read from it. Hyp = O=C(O)[C@@H]1C[C@@H](O)CN1

Key:
[1] = test system: tracheary element differentiation; conditions: reported in vivo study; cited from earlier work
Text: There are two major anchoring sites on the TDIF peptide that are separated by Hyp4-S5-G6-Hyp7 (Fig 2). […] The side chain of H1 dips into a binding pocket of TDR formed by residues S162, G186, S187, Y188 and G210. In addition, hydrogen bonding interactions create major interactiv ... || Three TDIF residues N8, I10 and N12 form a C-terminal anchoring site (Fig 2C). Alanine substitutions of these residues N8A, I10A and N12A radically weaken their binding with TDR receptor. δ-NH2 group of N8 forms hydrogen bonds with the hydroxyl group of S305; side chain of I10 forms hydrophobic interaction with W353; δ-NH2 group of N12 forms hydrogen bonds with the hydroxyl group of S377 and carbonyl group of N12 forms a hydrogen bond with the side chain of R421.

[2] = biological target: T1, ecdTDR (extracellular domain of TDR, residues 30–642), wild type (Arabidopsis thaliana, UniProt Q9FII5); assay: ITC of synthetic TDIF/CLE peptides with wild-type ecdTDR; conditions: for Binding to TDR in words (relative to wild type peptide) / Kd (dissociation constant): ITC, 25°C, pH 5.5; for Binding to TDR in words (relative to wild type peptide): wild-type ecdTDR; for Kd (dissociation constant): 10 mM sodium citrate, 100 mM NaCl, 0.5–1 mM peptide titrated into 10–40 μM ecdTDR, one set of binding sites, Kd = 1/Ka
T1 sequence (Q9FII5 30-642): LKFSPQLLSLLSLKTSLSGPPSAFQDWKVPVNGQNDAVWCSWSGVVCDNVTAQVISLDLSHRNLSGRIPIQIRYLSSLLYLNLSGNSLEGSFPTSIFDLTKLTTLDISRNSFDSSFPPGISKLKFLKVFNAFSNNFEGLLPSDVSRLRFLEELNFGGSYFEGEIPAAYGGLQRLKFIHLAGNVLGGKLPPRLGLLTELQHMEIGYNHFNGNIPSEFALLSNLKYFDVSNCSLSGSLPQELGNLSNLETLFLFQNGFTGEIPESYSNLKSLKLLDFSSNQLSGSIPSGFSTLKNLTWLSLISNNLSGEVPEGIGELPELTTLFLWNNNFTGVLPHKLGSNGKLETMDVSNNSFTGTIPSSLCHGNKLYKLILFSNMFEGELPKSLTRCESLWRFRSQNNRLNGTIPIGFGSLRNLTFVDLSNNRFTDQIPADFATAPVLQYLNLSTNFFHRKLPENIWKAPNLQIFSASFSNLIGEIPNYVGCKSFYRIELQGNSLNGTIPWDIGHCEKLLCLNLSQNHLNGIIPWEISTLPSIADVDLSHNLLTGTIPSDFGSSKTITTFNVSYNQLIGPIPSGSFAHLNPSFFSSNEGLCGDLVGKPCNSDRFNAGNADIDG
Text: To elucidate the molecular basis of TDR-TDIF interaction, we expressed the extracellular domain of TDR (residues 30–642) from Arabidopsis thaliana using Bac-to-Bac baculovirus-mediated insect cell expression system (Invitrogen). DNA fragment encoding the A. thaliana TDR gene (residues 30–642) were amplified by polymerase chain reaction (PCR) from an A. thaliana Expressed Sequence Tag (EST) clone as template. The amplified DNA fragment was then cloned into a modified pFastBac1 vector with the secretion signal sequence of baculovirus gp67 glycoprotein fused to its 5’ end and an engineered 6-histidine tag at the carboxyl terminus of the TDR protein. The construct plasmid was used to transform DH10Bac (Invitrogen) competent cells to generated recombinant bacmid DNA. Then the bacmid DNA was used to transfect sf9 insect cells to generate recombinant virus which was then amplified three times to passage 3. We used 20 ml passage 3 virus to infect each liter of High Five cells with a cell density of 1.5 x 10^6 in SF900 II SFM medium (Invitrogen). The recombinant protein was expressed in High Five cells at 27°C. […] The TDR mutants were generated using a PCR-based site-directed mutagenesis kit (Invitrogen), and the mutant TDR proteins were expressed and purified as the same procedure of the wild-type TDR (30–642) protein.
ITC experiments were performed on a MicroCal Auto-iTC200 instrument. […] Experiments were carried out at 25°C in a buffer containing 10 mM sodium citrate and 100 mM NaCl at pH 5.5. The data was analyzed using ORIGIN software. The association constant (Ka), enthalpy change (ΔH), and the stoichiometry (N) were calculated by fitting the thermograms to one set of binding sites. The association constant (Ka) was calculated by fitting the thermograms to one binding site.

[3] = biological target: ecdTDR Y234A/F279A/F281A/S305A/W353A/ R421A/R423A (Arabidopsis thaliana, UniProt Q9FII5, F279A/F281A/R421A/R423A/S305A/W353A/Y234A); conditions: ITC, wild type TDIF, 25°C, pH 5.5
Text: (§1) To elucidate the molecular basis of TDR-TDIF interaction, we expressed the extracellular domain of TDR (residues 30–642) from Arabidopsis thaliana using Bac-to-Bac baculovirus-mediated insect cell expression system (Invitrogen). DNA fragment encoding the A. thaliana TDR gene (residues 30–642) were amplified by polymerase chain reaction (PCR) from an A. thaliana Expressed Sequence Tag (EST) clone as template. The amplified DNA fragment was then cloned into a modified pFastBac1 vector with the secretion signal sequence of baculovirus gp67 glycoprotein fused to its 5’ end and an engineered 6-histidine tag at the carboxyl terminus of the TDR protein. The construct plasmid was used to transform DH10Bac (Invitrogen) competent cells to generated recombinant bacmid DNA. Then the bacmid DNA was used to transfect sf9 insect cells to generate recombinant virus which was then amplified three times to passage 3. […]
(§2) ITC experiments were performed on a MicroCal Auto-iTC200 instrument. […] The data was analyzed using ORIGIN software. The association constant (Ka), enthalpy change (ΔH), and the stoichiometry (N) were calculated by fitting the thermograms to one set of binding sites. The association constant (Ka) was calculated by fitting the thermograms to one binding site.

[4] = biological target: ecdTDR S305A/W353A/R421A/R423A (Arabidopsis thaliana, UniProt Q9FII5, R421A/R423A/S305A/W353A); conditions: ITC, wild type TDIF, 25°C, pH 5.5
Text: as §1, §2

[5] = biological target: T2, extracellular domain of A. thaliana TDR (residues 30-642), Q9FII5; assay: ITC
T2 chain: T1 sequence (Q9FII5 30-642)

[6] = biological target: T3, extracellular domain of A. thaliana TDR (residues 30-642) (Arabidopsis thaliana, UniProt Q9FII5 30-642, N-glycosylated at N111, N356, N378, N471 and N525 (one GlcNAc visible on each in the structures)); assay: ITC; 0.5–1 mM peptide titrated into 10–40 μM ecdTDR; 25°C; 10 mM sodium citrate, 100 mM NaCl, pH 5.5; fitted to one set of binding sites; MicroCal Auto-iTC200; conditions: both partners purified
T3 construct: TDR/PXY (TDIF RECEPTOR / PHLOEM INTERCALATED WITH XYLEM) of A. thaliana, extracellular domain, residues 30-642; the structure models hold residues 40-625; also called ecdTDR; TDR-ECD; source: High Five insect cells (baculovirus), secreted, purified (Ni-NTA, size-exclusion chromatography)
T3 sequence (looked up): T1 sequence (Q9FII5 30-642)

[7] = biological target: T4, extracellular domain of A. thaliana TDR (residues 30-642) (Arabidopsis thaliana, UniProt Q9FII5 30-642, N-glycosylated at N111, N356, N378, N471 and N525 (one GlcNAc visible on each in the structures)); assay: ITC
T4 chain: T1 sequence (Q9FII5 30-642)

ecdTDR Y234A/F279A/F281A/S305A/W353A/ R421A/R423A, sequence (Q9FII5 30-642 Y234A/F279A/F281A/S305A/W353A/R421A/R423A): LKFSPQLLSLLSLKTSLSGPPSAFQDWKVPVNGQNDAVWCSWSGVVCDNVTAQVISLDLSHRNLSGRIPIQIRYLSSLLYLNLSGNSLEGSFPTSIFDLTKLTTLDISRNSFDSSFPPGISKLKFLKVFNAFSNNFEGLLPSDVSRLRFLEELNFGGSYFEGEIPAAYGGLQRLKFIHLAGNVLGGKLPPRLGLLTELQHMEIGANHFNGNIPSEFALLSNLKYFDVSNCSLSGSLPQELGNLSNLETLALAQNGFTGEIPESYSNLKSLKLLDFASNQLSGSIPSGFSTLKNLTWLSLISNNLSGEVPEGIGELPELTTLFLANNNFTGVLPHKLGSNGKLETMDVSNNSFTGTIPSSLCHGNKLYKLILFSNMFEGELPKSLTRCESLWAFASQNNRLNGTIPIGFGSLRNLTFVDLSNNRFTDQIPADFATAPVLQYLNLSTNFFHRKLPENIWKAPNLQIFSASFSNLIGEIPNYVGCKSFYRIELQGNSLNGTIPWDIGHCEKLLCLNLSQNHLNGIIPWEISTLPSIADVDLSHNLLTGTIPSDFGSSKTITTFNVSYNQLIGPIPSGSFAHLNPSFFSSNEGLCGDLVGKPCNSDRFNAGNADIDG
ecdTDR S305A/W353A/R421A/R423A, sequence (Q9FII5 30-642 S305A/W353A/R421A/R423A): as the sequence (Q9FII5 30-642 Y234A/F279A/F281A/S305A/W353A/R421A/R423A) above, with A205Y, A250F, A252F counted along it

## TDIF-P9A: TDIF mutant peptide, P9A (HEV[Hyp]SG[Hyp]NAISN)
[1]
  Effect on inhibition of tracheary element differentiation, in words: significant in effect

## CC(C)[C@H](NC(=O)[C@H](CCC(=O)O)NC(=O)[C@@H](N)Cc1c[nH]cn1)C(=O)N1C[C@H](O)C[C@H]1C(=O)N[C@@H](CO)C(=O)NCC(=O)N1C[C@H](O)C[C@H]1C(=O)N[C@@H](C)C(=O)N1CCC[C@H]1C(=O)N[C@@H](C)C(=O)N[C@@H](CO)C(=O)N[C@@H](C)C(=O)O [TDIF-N8A/I10A/N12A] (H-HEV[Hyp]SG[Hyp]APASA-OH)
[2]
  Kd: 11.1 ± 1.84 µM

## CLE42: CLE peptide in which the E2 of TDIF has been replaced with glycine (HGVPSGPNPISN) [reference compound]
[2]
  Binding to TDR in words (relative to wild type peptide): does not influence the binding significantly

## CC[C@H](C)[C@H](NC(=O)[C@@H]1CCCN1C(=O)[C@H](CC(N)=O)NC(=O)[C@@H]1C[C@@H](O)CN1C(=O)CNC(=O)[C@H](CO)NC(=O)[C@@H]1C[C@@H](O)CN1C(=O)[C@@H](NC(=O)[C@H](CCC(=O)O)NC(=O)[C@@H](N)Cc1c[nH]cn1)C(C)C)C(=O)N[C@@H](CO)C(=O)N[C@@H](C)C(=O)O [TDIF-N12A] (H-HEV[Hyp]SG[Hyp]NPISA-OH)
[2]
  Kd: 4.69 ± 0.47 µM

## TDIF-H1A/E2A/V3A/N8A/I10A/N12A: TDIF mutant peptide, both anchoring sites mutated (AAAPSGPAPASA; not fully specified (residues 4, 7))
[2]
  Kd (dissociation constant): No binding
  Binding to TDR in words (relative to wild type peptide): no binding

## CLE46: CLE peptide with E2K, V3H, I10T and S11G substitutions relative to TDIF (HKHPSGPNPTGN) [reference compound]
[2]
  Kd (dissociation constant): No binding
  Binding to TDR in words (relative to wild type peptide): no measurable binding; also recorded: unable to bind TDR

## TDIF-S11A: TDIF mutant peptide, S11A substitution (HEVPSGPNPIAN; not fully specified (residues 4, 7))
[2]
  Binding to TDR in words (relative to wild type peptide): barely affects the binding affinity

## TDIF-H1A/E2A/V3A/N12A: TDIF mutant peptide (AAAPSGPNPISA; not fully specified (residues 4, 7))
[2]
  Kd (dissociation constant): No binding
  Binding to TDR in words (relative to wild type peptide): no binding

## CC[C@H](C)[C@H](NC(=O)[C@@H]1CCCN1C(=O)[C@H](CC(N)=O)NC(=O)[C@@H]1C[C@@H](O)CN1C(=O)CNC(=O)[C@H](CO)NC(=O)[C@@H]1C[C@@H](O)CN1C(=O)[C@@H](NC(=O)[C@H](CCC(=O)O)NC(=O)[C@@H](N)Cc1c[nH]cn1)C(C)C)C(=O)N[C@@H](CO)C(=O)N[C@@H](CC(N)=O)C(=O)O [TDIF, Tracheary Element Differentiation Inhibitory Factor] (H-HEV[Hyp]SG[Hyp]NPISN-OH)
[3]
  Kd: no measurable binding
[4]
  Kd: no measurable binding

B1: CLE9 peptide R1H (peptide)
chain: HLVPSGPNPLHN
[5]; chain shown with the change
  ratio to parent: -46.6
[5]; chain shown with the change, parent: […]
  other: fold change in Kd against wild type TDIF: 2.1
[5]; chain shown with the change;, parent: 10215 ± 6281 nM
  Kd: 0.219 µM

B2: CLE42 peptide (peptide)
peptide: HGVPSGPNPISN
notes: CLE42 peptide of A. thaliana; numbers count on: the 12-residue peptide
[6]
  binding result: binds

B3: TDIF peptide with alanine substitution of Hyp4 (peptide)
peptide: HEVASG[Hyp]NPISN
notes: TDIF (CLE41/CLE44 peptide) of A. thaliana; numbers count on: the 12-residue peptide; also called Hyp4 alanine mutant
[6]
  binding result: binds

B4: TDIF peptide with alanine substitution of S5 (peptide)
peptide: HEV[Hyp]AG[Hyp]NPISN
notes: TDIF (CLE41/CLE44 peptide) of A. thaliana; numbers count on: the 12-residue peptide; also called S5 alanine mutant
[6]
  binding result: binds

B5: TDIF E2R mutant peptide (peptide)
peptide: HRV[Hyp]SG[Hyp]NPISN
notes: TDIF (CLE41/CLE44 peptide) of A. thaliana; numbers count on: the 12-residue peptide
[6]
  fold increase in Kd over wild-type TDIF: 5.3 fold

B6: TDIF-H1R peptide (peptide)
peptide: REV[Hyp]SG[Hyp]NPISN
notes: TDIF (CLE41/CLE44 peptide) of A. thaliana; numbers count on: the 12-residue peptide; also called printed once as 'R1H substitution of TDIF'; source: synthetic peptide
[6]
  fold lower affinity than wild-type TDIF: 3.2 fold

B7: TDIF E2A mutant peptide (peptide)
peptide: HAV[Hyp]SG[Hyp]NPISN
notes: as for B5
[6]
  fold increase in Kd over wild-type TDIF: 3.2 fold

B8: TDIF-P9A mutant peptide (peptide)
peptide: HEV[Hyp]SG[Hyp]NAISN
notes: as for B5
[6]
  fold decrease in binding against wild-type TDIF: 2 fold

B9: TDIF H1A mutant peptide (peptide)
peptide: AEV[Hyp]SG[Hyp]NPISN
notes: as for B5
[6]
  fold lower affinity than wild-type TDIF: ~115 fold

B10: G6A TDIF mutant peptide (peptide)
peptide: HEV[Hyp]SA[Hyp]NPISN
notes: as for B5
[6]
  fold lower affinity than wild-type TDIF: 13.9 fold

B11: TDIF peptide with alanine substitution of Hyp7 (peptide)
peptide: HEV[Hyp]SGANPISN
notes: TDIF (CLE41/CLE44 peptide) of A. thaliana; numbers count on: the 12-residue peptide; also called Hyp7 alanine mutant
[6]
  binding result: binds

B12: TDIF V3A mutant peptide (peptide)
peptide: HEA[Hyp]SG[Hyp]NPISN
notes: as for B5
[6]
  fold lower affinity than wild-type TDIF: 11.1 fold

B13: G6T TDIF mutant peptide (peptide)
peptide: HEV[Hyp]ST[Hyp]NPISN
notes: as for B5
[6]
  fold lower affinity than wild-type TDIF: 20.1 fold

B14: TDIF S11A mutant peptide (peptide)
peptide: HEV[Hyp]SG[Hyp]NPIAN
notes: as for B5
[6]
  binding result: binds

B15: TDIF-N8A/I10A/N12A peptide (peptide)
peptide: HEV[Hyp]SG[Hyp]APASA
notes: as for B5
[6]
  Kd: ~11 µM
  fold lower affinity than wild-type TDIF: ~110 fold

B16: CLE9 peptide (peptide)
chain: RLVPSGPNPLHN
[7]
  Kd: 10.2 µM
